Measurements: patent CN114369161A (HEFEN TIANKPORT IMMUNOLOGICAL DRUG CO LTD, dated 2022)

Assays:
[1] = target: T1, MICA胞外区α3结构域Fc融合蛋白(MICAα3-Fc); assay: ELISA (legend of Fig. 2)
T1 construct: also called MICAα3-Fc融合蛋白; MICA α3结构域

[2] = target: T2, MICA (CHO-K1-MICA细胞表达) (Homo sapiens (Human), UniProt Q29983 24-383); assay: flow cytometry (legend of Fig. 3)
T2 construct: also called MICA蛋白
T2 sequence: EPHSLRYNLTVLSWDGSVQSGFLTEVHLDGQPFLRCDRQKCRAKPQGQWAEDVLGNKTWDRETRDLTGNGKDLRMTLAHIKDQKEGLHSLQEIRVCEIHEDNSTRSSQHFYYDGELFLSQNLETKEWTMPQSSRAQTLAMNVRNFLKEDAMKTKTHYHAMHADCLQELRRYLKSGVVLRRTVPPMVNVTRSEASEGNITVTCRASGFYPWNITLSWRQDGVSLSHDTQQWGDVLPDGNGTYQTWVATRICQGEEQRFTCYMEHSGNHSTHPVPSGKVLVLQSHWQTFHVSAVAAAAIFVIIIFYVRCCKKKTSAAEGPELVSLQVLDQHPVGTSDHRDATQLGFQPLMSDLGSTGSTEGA

[3] = target: T3, MICB (CHO-K1-MICB细胞表达) (Homo sapiens (Human), UniProt Q29980 23-382); assay: flow cytometry (legend of Fig. 4)
T3 chain: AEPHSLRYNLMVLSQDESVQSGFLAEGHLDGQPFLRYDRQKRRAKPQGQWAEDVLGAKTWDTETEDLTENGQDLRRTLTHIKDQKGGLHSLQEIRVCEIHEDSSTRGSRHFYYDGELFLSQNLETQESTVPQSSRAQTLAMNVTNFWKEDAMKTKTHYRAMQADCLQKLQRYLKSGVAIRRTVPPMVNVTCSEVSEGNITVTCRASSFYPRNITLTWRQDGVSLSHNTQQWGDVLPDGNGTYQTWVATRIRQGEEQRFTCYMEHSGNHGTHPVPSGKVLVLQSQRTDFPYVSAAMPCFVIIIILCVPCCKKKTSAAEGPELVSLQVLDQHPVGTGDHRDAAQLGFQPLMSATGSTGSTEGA

[4] = target: T4, 重组MICA胞外区Fc融合蛋白(MICA-Fc) (human); assay: ELISA, MICA-Fc coated at 1 μg/mL, HRP anti-mouse secondary
T4 construct: also called MICA-Fc融合蛋白; 人MICA

Measured: binding result

T1 sequence (chain, as listed by the source limits assumed): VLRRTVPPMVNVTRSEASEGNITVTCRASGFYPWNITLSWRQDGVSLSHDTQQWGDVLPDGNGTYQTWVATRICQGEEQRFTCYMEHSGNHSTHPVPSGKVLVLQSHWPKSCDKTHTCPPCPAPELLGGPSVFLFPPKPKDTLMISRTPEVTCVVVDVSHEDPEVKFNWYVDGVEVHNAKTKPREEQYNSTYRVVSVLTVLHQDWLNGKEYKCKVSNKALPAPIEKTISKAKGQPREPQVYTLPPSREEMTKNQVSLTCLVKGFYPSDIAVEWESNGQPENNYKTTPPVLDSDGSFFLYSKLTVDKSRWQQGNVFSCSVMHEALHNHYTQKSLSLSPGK

B1: MICA抗体(编号为11G3) (antibody, V domains shown)
VH: QIQLVQSGPELKKPGESVKISCKASGYTFTDYGINWVKQAPGKGLKWVGWINTYTGEPINADDFKGRFALSLETSANTAYLQINNLKNEDMATYFCTRLSTVAVGAWFEYWGQGTLVTVSA
VL: DVLMTQTPLSLPVSLGDQASISCRSSQNIVHSNGNTYLEWYLQKPGQSPKLLIYKVSNRFSGVPDRFSGSGSGTDFTLKISRVEAEDLGVYYCFQGSHVPTFGGGTKLEIK
notes: also called 鼠单抗; 本发明的抗体
binds: all assays above
